Laboratory results published in patent publication US20060275312A1.

B1: Blo t 5 (recombinant major house dust mite allergen from Blomia tropicalis) (protein)
chain: QEHKPKKDDFRNEFDHLLIEQANHAIEKGEHQLLYLQHQLDELNENKSKELQEKIIRELDVVCAMIEGAQGALERELKRTDLNILERFNYEEAQTLSKILLKDLKETEQKVKDIQTQ
B2: Blo t 5-Fve (two-in-one chimeric wild type) fusion protein (protein)
chain: QEHKPKKDDFRNEFDHLLIEQANHAIEKGEHQLLYLQHQLDELNENKSKELQEKIIRELDVVCAMIEGAQGALERELKRTDLNILERFNYEEAQTLSKILLKDLKETEQKVKDIQTQSATSLTFQLAYLVKKIDFDYTPNWGRGTPSSYIDNLTFPKVLTDKKYSYRVVVNGSDLGVESNFAVTPSGGQTINFLQYNKGYGVADTKTIQVFVVIPDTGNSEEYIIAEWKKT

Columns and labels:
[1] = target: human IgE from serum of a representative allergic subject with high IgE reactivity to house dust mite allergens (human); assay: competitive inhibition ELISA, human serum IgE, GST-Blo t5 on plate, inhibitor at 10 µg/ml
[2] = target: human IgE from serum of a representative allergic subject with high IgE reactivity to house dust mite allergens (human); assay: competitive inhibition ELISA, human serum IgE, GST-Blo t5 on plate

Binder | inhibition of IgE binding to GST-Bt5 [1] [%] | maximum inhibition of IgE binding to GST-Blo t5 [2] [%]
B1 | 100 | –
B2 | – | 70
